Patent US20240343811A1 (SHANDONG SIMCERE BIOPHARMACUTICAL, published 2024)

T1: Human CD16b (NA1)-his (human)
T1 construct: entry holds ECD, linker, His tag and AVI tag
T1 chain: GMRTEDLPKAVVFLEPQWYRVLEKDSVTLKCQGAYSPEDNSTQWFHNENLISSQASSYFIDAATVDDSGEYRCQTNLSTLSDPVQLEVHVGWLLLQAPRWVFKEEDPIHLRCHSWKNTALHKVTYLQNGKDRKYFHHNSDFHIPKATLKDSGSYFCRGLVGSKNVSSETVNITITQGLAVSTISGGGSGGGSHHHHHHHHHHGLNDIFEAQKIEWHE

T2: human CD16b (NA1), full length, on FlpinCHO cells (human, UniProt O75015 17-200)
T2 construct: also called FlpinCHO-human CD16b (NA1)
T2 chain: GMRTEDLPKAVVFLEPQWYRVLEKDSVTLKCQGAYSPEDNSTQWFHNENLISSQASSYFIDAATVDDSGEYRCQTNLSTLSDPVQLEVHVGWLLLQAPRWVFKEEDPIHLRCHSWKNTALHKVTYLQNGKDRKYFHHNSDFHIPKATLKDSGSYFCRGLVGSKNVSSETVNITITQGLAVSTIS

T3: human CD16b (NA2), full length, on FlpinCHO cells (human, UniProt O75015 17-200)
T3 construct: also called FlpinCHO-human CD16b (NA2)
T3 chain: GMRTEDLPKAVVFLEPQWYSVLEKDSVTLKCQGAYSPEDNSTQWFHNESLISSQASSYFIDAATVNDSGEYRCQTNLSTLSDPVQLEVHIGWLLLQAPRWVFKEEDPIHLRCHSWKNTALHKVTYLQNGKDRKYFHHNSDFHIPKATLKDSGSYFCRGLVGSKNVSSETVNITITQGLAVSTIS


Columns and labels:
Human CD16a (158F)-his = molecular target: T4, Human CD16a (158F)-his (human); experiment: SPR (Biacore), antibody captured on Protein A
T4 construct: entry holds ECD, AVI tag, linker and His tag
In short: (§1)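 Protein A–captured antibody was probed with CD16-his ECD in HBS-EP+ at 25 °C: five 2-fold dilutions from 200 nM, 240 s at 30 μL/min, dissociation up to 600 s. Glycine pH 1.5 regenerated the chip. Apparent KD came from a double-referenced 1:1 Langmuir fit.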

Human CD16b (NA1)-his = molecular target: T1, Human CD16b (NA1)-his; experiment: SPR (Biacore), antibody captured on Protein A
In short: as §1

Human CD16a (158V)-his = molecular target: T5, Human CD16a (158V)-his (human); experiment: SPR (Biacore), antibody captured on Protein A
T5 construct: entry holds ECD, AVI tag, linker and His tag
In short: as §1

[1] = molecular target: T6, human CD16a (158V), full length, on cells (human, UniProt P08637 17-254); experiment: cell-based or functional assay
[2] = molecular target: T7, human CD16a (158F), full length, on FlpinCHO cells (human, UniProt P08637 17-254); experiment: FACS, biotinylated antibody
[3] = molecular target: T6, human CD16a (158V), full length, on …; experiment: FACS, biotinylated antibody
[4] = molecular target: T7, human CD16a (158F), full length, on …; experiment: FACS on FlpinCHO cells
In short: (§2)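 Trypsinised cells in PBS + 2% BSA were incubated on ice for 1 hour with antibody at a range of concentrations. After washes, mean fluorescence intensity was read by flow cytometry. EC50 values were derived by curve fitting of MFI.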

[5] = molecular target: T6, human CD16a (158V), full length, on …; experiment: FACS on FlpinCHO cells
In short: as §2

[6] = molecular target: T2, human CD16b (NA1), full length, on …; experiment: FACS on FlpinCHO cells
In short: (§3)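 Trypsin-detached FlpinCHO cells expressing full-length CD16b were blocked in PBS+2% BSA and incubated on ice for 1 hour with antibody at varying concentrations. Binding read by flow cytometry as MFI; EC50 from curve fitting.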

[7] = molecular target: T8, CD16 on primary human NK cells (human, UniProt P08637 17-254); experiment: FACS on human NK cells, biotinylated antibody, +10 mg/mL human immunoglobulin
T8 construct: whole, on cells; also called resting NK cells

[8] = molecular target: T7, human CD16a (158F), full length, on …; experiment: FACS, biotinylated antibody, +10 mg/mL human immunoglobulin
[9] = molecular target: T6, human CD16a (158V), full length, on …; experiment: as above
[10] = molecular target: T8, CD16 on primary human NK cells; experiment: FACS on human NK cells, biotinylated antibody
[11] = molecular target: T8, CD16 on primary human NK cells; experiment: FACS on human NK cells
In short: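 Freshly prepared human NK cells were resuspended at 2×10⁶ cells/ml in PBS+2% (w/w) BSA and incubated 1 h on ice with antibody at varying concentrations. After five PBS washes, flow cytometry gave mean fluorescence intensity, and EC50 was fitted from the MFI curve.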

[12] = molecular target: T9, cynomolgus monkey CD16, full length, on FlpinCHO cells (cynomolgus monkey, UniProt Q8SPW2 17-254); experiment: FACS on FlpinCHO cells
T9 construct: also called FlpinCHO-cyno CD16; Flipin CHO-cyno CD16
T9 sequence (Q8SPW2 other isoform, or with tags, fused parts or gaps limits assumed): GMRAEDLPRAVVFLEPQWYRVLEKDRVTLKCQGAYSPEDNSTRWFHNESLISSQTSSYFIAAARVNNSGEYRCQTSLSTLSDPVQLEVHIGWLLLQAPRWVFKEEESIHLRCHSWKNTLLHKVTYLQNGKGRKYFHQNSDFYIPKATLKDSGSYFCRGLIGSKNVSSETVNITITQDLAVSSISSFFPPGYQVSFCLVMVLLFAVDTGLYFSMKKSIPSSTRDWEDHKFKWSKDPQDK
Method: The required cells were scale-up cultured in a T-75 cell culture flask to the logarithmic growth phase. The medium was aspirated, and the cells were washed twice with a PBS buffer and then digested with trypsin. After the digestion was terminated, the cells were washed twice with the PBS buffer. The cells were counted, and then the cell pellet was resuspended with a [PBS+2% (w/w) BSA] blocking solution to 2×10⁶ cells/ml, and added to a 96-well FACS reaction plate at 50 μl/well. […] 50 μl/well of the antibody to be detected was added at different concentrations, and incubated on ice for 1 hour. […] The mixture was centrifuged and washed 5 times with PBS, and FACS (FACS Canto II, purchased from BD Company) was used for detection and result analysis. Data analysis was performed by software (CellQuest) to obtain the mean fluorescence intensity (MFI) of the cells. Then, software (GraphPad Prism8) was used for analysis, data fitting and EC50 value calculation.
Flipin CHO-cyno CD16 cells were subjected to FACS detection and data analysis according to the method of Example 3.1.

[13] = molecular target: T3, human CD16b (NA2), full length, on …; experiment: FACS on FlpinCHO cells
In short: as §3

Binder | Kd (Human CD16a (158F)-his) | koff (Human CD16a (158F)-his) | kon (Human CD16a (158F)-his) | Kd (Human CD16a (158V)-his) | koff (Human CD16a (158V)-his) | kon (Human CD16a (158V)-his) | EC50, activation activity for Jurkat cell [1] | Maximum fluorescence value [1] | EC50 [2] | Maximum mean fluorescence intensity [2] | EC50 [3] | Maximum mean fluorescence intensity [3] | EC50 [4] | Maximum mean fluorescence intensity [4] | EC50 [5] | Maximum mean fluorescence intensity [5] | EC50 [6] | Maximum mean fluorescence intensity [6] | EC50 [8] | Maximum mean fluorescence intensity [8] | also measured
VHH02 VHH-Fc antibody (Fc fusion) EVQLVESGGGLVQAGGSLRLSCATSGITFSSYAMGWYRQAPGKQRELVAGINRFGLTNYADSVKGRFTISRDNAKNTVYLQMTSLKSEDTAVYYCNTGGVYSHPNYYTGIYWGQGTQVTVSSEPKSSDKTHTCPPCPAPEFEGGPSVFLFPPKPKDTLMISRTPEVTCVVVAVSHEDPEVKFNWYVDGVEVHNAKTKPREEQYNSTYRVVSVLTVLHQDWLNGKEYKCKVSNKALPAPIEKTISKAKGQPREPQVYTLPPSREEMTKNQVSLTCLVKGFYPSDIAVEWESNGQPENNYKTTPPVLDSDGSFFLYSKLTVDKSRWQQGNVFSCSVMHEALHNHYTQKSLSLSPGK | 132 nM | 0.027 s⁻¹ | 205000 M⁻¹ s⁻¹ | 96.5 nM | 0.0179 s⁻¹ | 186000 M⁻¹ s⁻¹ | 0.3 nM | 178000 | 0.33 nM | 6310 | 0.33 nM | 7300 | 1.17 nM | 5210 | 0.3 nM | 6000 | 4.27 nM | 31900 | 1.21 nM | 6020 | EC50 [12]: 0.88 nM; Maximum mean fluorescence intensity [12]: 17100; EC50 [13]: 5.45 nM; Maximum mean fluorescence intensity [13]: 52400; EC50 [9]: 1.18 nM; Maximum mean fluorescence intensity [9]: 7660
VHH14 VHH-Fc antibody (Fc fusion) EVQLVESGGGLVQAGGSLRLSCAASGITFSSYAMAWYRQDPGKQRELVAAINRFGLTNYADSVKGRFTISRDNAKNTVYLEMTSLKPEDTAVYYCNTGGVYSHPNYYTGTYWGQGTQVTVSSEPKSSDKTHTCPPCPAPEFEGGPSVFLFPPKPKDTLMISRTPEVTCVVVAVSHEDPEVKFNWYVDGVEVHNAKTKPREEQYNSTYRVVSVLTVLHQDWLNGKEYKCKVSNKALPAPIEKTISKAKGQPREPQVYTLPPSREEMTKNQVSLTCLVKGFYPSDIAVEWESNGQPENNYKTTPPVLDSDGSFFLYSKLTVDKSRWQQGNVFSCSVMHEALHNHYTQKSLSLSPGK | 25 nM | 0.0296 s⁻¹ | 1.18e+06 M⁻¹ s⁻¹ | 19.3 nM | 0.0602 s⁻¹ | 3.12e+06 M⁻¹ s⁻¹ | 0.02 nM | 169000 | 0.27 nM | 5510 | 0.38 nM | 8180 | 0.23 nM | 5750 | 0.27 nM | 6250 | 0.93 nM | 41900 | 0.91 nM | 5070 | EC50 [12]: 0.18 nM; Maximum mean fluorescence intensity [12]: 16400; EC50 [13]: 1.44 nM; Maximum mean fluorescence intensity [13]: 61400; EC50 [9]: 1.1 nM; Maximum mean fluorescence intensity [9]: 7900; EC50 [11]: 0.17 nM; Maximum mean fluorescence intensity [11]: 2620

The next binders have a lower Kd (Human CD16a (158F)-his) than those just listed; values first:

Kd (Human CD16a (158F)-his) | koff (Human CD16a (158F)-his) | kon (Human CD16a (158F)-his) | Kd (Human CD16a (158V)-his) | koff (Human CD16a (158V)-his) | kon (Human CD16a (158V)-his) | EC50, activation activity for Jurkat cell [1] | Maximum fluorescence value [1] | EC50 [2] | Maximum mean fluorescence intensity [2] | EC50 [3] | Maximum mean fluorescence intensity [3] | EC50 [4] | Maximum mean fluorescence intensity [4] | EC50 [5] | Maximum mean fluorescence intensity [5] | EC50 [6] | Maximum mean fluorescence intensity [6] | EC50 [8] | Maximum mean fluorescence intensity [8] | Binder | also measured
8.16 nM | 0.000499 s⁻¹ | 61200 M⁻¹ s⁻¹ | 3.73 nM | 0.000321 s⁻¹ | 86100 M⁻¹ s⁻¹ | 0.03 nM | 171000 | 0.33 nM | 8780 | 0.74 nM | 12400 | 0.49 nM | 7320 | 0.53 nM | 8100 | 0.96 nM | 42500 | 1.51 nM | 10000 | VHH05 VHH-Fc antibody (Fc fusion) QVQLVESGGGLVQAGGSLRLSCVASSSTVTTYAVRWYRQAPGKQREWVAFISVDGNTNYPDSVKGRFIVSRDNAKNTVYLQMNSLKPEDTADYICRAGGQYWGQGTQVTVSSEPKSSDKTHTCPPCPAPEFEGGPSVFLFPPKPKDTLMISRTPEVTCVVVAVSHEDPEVKFNWYVDGVEVHNAKTKPREEQYNSTYRVVSVLTVLHQDWLNGKEYKCKVSNKALPAPIEKTISKAKGQPREPQVYTLPPSREEMTKNQVSLTCLVKGFYPSDIAVEWESNGQPENNYKTTPPVLDSDGSFFLYSKLTVDKSRWQQGNVFSCSVMHEALHNHYTQKSLSLSPGK | Kd (Human CD16b (NA1)-his): 9.28 nM; koff (Human CD16b (NA1)-his): 0.000958 s⁻¹; kon (Human CD16b (NA1)-his): 103000 M⁻¹ s⁻¹; EC50 [7]: 2.94 nM; Maximum mean fluorescence intensity [7]: 72800; EC50 [9]: 1.7 nM; Maximum mean fluorescence intensity [9]: 13300; EC50 [10]: 1.15 nM; Maximum mean fluorescence intensity [10]: 63200; EC50 [11]: 0.62 nM; Maximum mean fluorescence intensity [11]: 2560
22.2 nM | 0.0192 s⁻¹ | 866000 M⁻¹ s⁻¹ | 19.8 nM | 0.0362 s⁻¹ | 1.83e+06 M⁻¹ s⁻¹ | 0.02 nM | 165000 | 0.16 nM | 6240 | 0.25 nM | 9620 | 0.18 nM | 6020 | 0.24 nM | 6660 | 0.77 nM | 51400 | 0.67 nM | 5830 | VHH13 VHH-Fc antibody (Fc fusion) EVQVVESGGGLVQAGGSLRLSCAASGITFSSYAMGWYRQAPGKQRELVAAINRFGLTNYADSVKGRFTISRDNAKSTVYLQMTSLKPEDTAVYYCNTGGVYSHPDYYTGTYWGQGTQVTVSSEPKSSDKTHTCPPCPAPEFEGGPSVFLFPPKPKDTLMISRTPEVTCVVVAVSHEDPEVKFNWYVDGVEVHNAKTKPREEQYNSTYRVVSVLTVLHQDWLNGKEYKCKVSNKALPAPIEKTISKAKGQPREPQVYTLPPSREEMTKNQVSLTCLVKGFYPSDIAVEWESNGQPENNYKTTPPVLDSDGSFFLYSKLTVDKSRWQQGNVFSCSVMHEALHNHYTQKSLSLSPGK | EC50 [12]: 0.24 nM; Maximum mean fluorescence intensity [12]: 21400; EC50 [13]: 1.11 nM; Maximum mean fluorescence intensity [13]: 70200; EC50 [9]: 1.09 nM; Maximum mean fluorescence intensity [9]: 9660; EC50 [11]: 0.15 nM; Maximum mean fluorescence intensity [11]: 2630
